{"source": "FireProtDB (doi:10.1002/prot.10406)", "conditions": "Homo sapiens, Urea, CD, phosphate citrate borate 2 mM 2 mM 2 mM, NaCl 10 mM, whole UniProt chain shown", "note": "Where “and” joins values, the source holds several entries; their conditions need not be identical. Identical values can stand only once."}
{"protein": "Alpha-lactalbumin wild type, P00709 (protein) MRFFVPLFLVGILFPAILAKQFTKCELSQLLKDIDGYGGIALPELICTMFHTSGYDTQAIVENNESTEYGLFQISNKLWCKSSQVPQSRNICDISCDKFLDDDITDDIMCAKKILDIKGIDYWLAHKALCTEKLEQWLCEKL", "values": [{"measurement": "denaturant m value", "setting": "pH 2, 20 °C", "result": "0.54 kcal/mol/M and 0.67 kcal/mol/M"}, {"measurement": "denaturant m value", "setting": "pH 7, 2 °C, transition: 3", "result": "0.95 kcal/mol/M and 0.55 kcal/mol/M"}, {"measurement": "denaturant midpoint (higher = more stable)", "setting": "pH 7, 2 °C, transition: 3", "result": "2.24 M and 2.34 M"}, {"measurement": "unfolding free energy", "setting": "pH 7, 2 °C, transition: 3", "result": "2.13 kcal/mol and 1.27 kcal/mol"}]}
